Data from the Human Domainome abundance scans (Beltran et al. 2025).
± gives the uncertainty stated by the source.

B1: Far upstream element-binding protein 1, residues 98 to 169; numbered along this chain, Q96AE4 (parent)
chain: RSVMTEEYKVPDGMVGFIIGRGGEQISRIQQESGCKIQIAPDSGGLPERSCMLTGTPESVQSAKRLLDQIVE

Variants of: B1
Assay: abundance fitness (aPCA) (normalised: wild type 0, dead -1); higher = more abundant; growth selection in yeast, the domain comes from the species named
Settings: Homo sapiens

Abundance fitness of substitutions, site by site:
E6: W -0.048 ± 0.027; I -0.07 ± 0.05; C -0.085 ± 0.037; H -0.081 ± 0.046; Q 0.054 ± 0.032; F -0.081 ± 0.039; A -0.14 ± 0.027; Y -0.053 ± 0.045; L -0.033 ± 0.026; G -0.092 ± 0.023; R -0.02 ± 0.023; T 0.029 ± 0.03; N -0.177 ± 0.048; M -0.01 ± 0.034; P -0.625 ± 0.039; K -0.01 ± 0.032; D -0.104 ± 0.04
G13: K 0 ± 0.034; P -0.019 ± 0.03; W -0.038 ± 0.029; D 0 ± 0.034; Q 0.033 ± 0.033; H -0.055 ± 0.04; I -0.034 ± 0.047; E 0.041 ± 0.032; F -0.123 ± 0.045; A -0.01 ± 0.026; M -0.034 ± 0.036; S 0.025 ± 0.026; V -0.218 ± 0.027; T 0.031 ± 0.031; L -0.079 ± 0.026; Y 0.012 ± 0.044; R -0.007 ± 0.023
P11: I -0.159 ± 0.038; Q -0.099 ± 0.032; G -0.138 ± 0.025; S -0.112 ± 0.025; V -0.17 ± 0.026; R -0.074 ± 0.023; H -0.162 ± 0.041; N -0.125 ± 0.041; T -0.124 ± 0.028; E -0.067 ± 0.031; A -0.081 ± 0.025; L -0.102 ± 0.025; C -0.133 ± 0.033; M -0.136 ± 0.032; W -0.185 ± 0.03; D -0.052 ± 0.034; F -0.206 ± 0.046; Y -0.127 ± 0.042
T5: I -0.037 ± 0.038; L -0.11 ± 0.026; P -0.301 ± 0.032; V -0.049 ± 0.025; W -0.138 ± 0.029; Q -0.016 ± 0.033; Y -0.096 ± 0.046; R -0.012 ± 0.023; M -0.012 ± 0.034; S -0.01 ± 0.026; N -0.063 ± 0.041
M14: H -0.12 ± 0.044; K -0.066 ± 0.033; G -0.097 ± 0.025; D -0.082 ± 0.037; W -0.093 ± 0.03; C -0.011 ± 0.037; P -0.27 ± 0.031; I -0.037 ± 0.043; R -0.131 ± 0.023; F -0.016 ± 0.044; A -0.007 ± 0.028; V -0.01 ± 0.027; Y -0.025 ± 0.05; L -0.013 ± 0.025; S -0.026 ± 0.026; N -0.105 ± 0.042
D12: M -0.067 ± 0.037; I -0.038 ± 0.051; S -0.045 ± 0.026; K -0.068 ± 0.036; V -0.041 ± 0.027; Q -0.027 ± 0.031; Y -0.045 ± 0.045; R -0.028 ± 0.023; A 0.019 ± 0.026; P -0.009 ± 0.028; F -0.066 ± 0.047; W -0.164 ± 0.032; G -0.049 ± 0.026; N 0.032 ± 0.041; C -0.057 ± 0.038; E 0.001 ± 0.03; L -0.064 ± 0.026; H -0.038 ± 0.047
K9: Q -0.033 ± 0.031; F -0.033 ± 0.033; W -0.084 ± 0.026; N -0.156 ± 0.043; L -0.06 ± 0.023; M -0.043 ± 0.031; V -0.098 ± 0.023; T -0.091 ± 0.027; G -0.195 ± 0.023; I -0.079 ± 0.035; H -0.093 ± 0.041; P -0.112 ± 0.028; E -0.216 ± 0.032; Y -0.084 ± 0.037; C -0.1 ± 0.031; R -0.053 ± 0.022; A -0.114 ± 0.024; S -0.108 ± 0.024; D -0.181 ± 0.032
E7: T -0.031 ± 0.21; M -0.281 ± 0.25; F -0.153 ± 0.23; A -0.085 ± 0.3; V -0.106 ± 0.14; C 0.061 ± 0.11; G -0.116 ± 0.14; L -0.031 ± 0.32; W -0.054 ± 0.17
Y8: F -0.013 ± 0.047; E -0.535 ± 0.039; W -0.059 ± 0.033; Q -0.2 ± 0.036; R -0.216 ± 0.026; H 0.024 ± 0.045; V -0.069 ± 0.029; K -0.127 ± 0.039; L -0.059 ± 0.03; N -0.426 ± 0.049; G -0.608 ± 0.03; T -0.147 ± 0.037; P -0.798 ± 0.053; M -0.104 ± 0.037; I -0.035 ± 0.044; C -0.297 ± 0.054; A -0.221 ± 0.03; D -0.688 ± 0.057
V10: H -0.502 ± 0.046; D -0.389 ± 0.038; C -0.078 ± 0.034; R -0.491 ± 0.026; G -0.304 ± 0.024; N -0.48 ± 0.055; W -0.193 ± 0.03; K -0.584 ± 0.05; E -0.628 ± 0.04; Y -0.198 ± 0.039; S -0.382 ± 0.028; F -0.091 ± 0.038; Q -0.581 ± 0.037; M 0.008 ± 0.034; P -0.265 ± 0.032; L -0.018 ± 0.025
V15: G -0.136 ± 0.027; H -0.135 ± 0.044; D -0.158 ± 0.044; I -0.074 ± 0.041; M -0.027 ± 0.036; C -0.124 ± 0.039; F 0.011 ± 0.044; L -0.046 ± 0.026
